According to FireProtDB (doi:10.1128/aem.02129-17):

B1: Lipase, P19515 (parent)
chain: MVLKQRANYLGFLIVFFTAFLVEAVPIKRQSNSTVDSLPPLIPSRTSAPSSSPSTTDPEAPAMSRNGPLPSDVETKYGMALNATSYPDSVVQAMSIDGGIRAATSQEINELTYYTTLSANSYCRTVIPGATWDCIHCDATEDLKIIKTWSTLIYDTNAMVARGDSEKTIYIVFRGSSSIRNWIADLTFVPVSYPPVSGTKVHKGFLDSYGEVQNELVATVLDQFKQYPSYKVAVTGHSLGGATALLCALDLYQREEGLSSSNLFLYTQGQPRVGDPAFANYVVSTGIPYRRTVNERDIVPHLPPAAFGFLHAGEEYWITDNSPETVQVCTSDLETSDCSNSIVPFTSVLDHLSYFGINTGLCT

Variants of: B1
Conditions: Rhizomucor miehei; pH 8; Thermal; DSF; sodium phosphate buffer 50 mM; structure 6QPR; whole UniProt chain shown

Variant	Tm [°C]	change of melting temperature, mutant - wild type (higher = more stable) [°C]
MVLKQRANYLGFLIVFFTAFLVEAVPIKRQSNSTVDSLPPLIPSRTSAPSSSPSTTDPEAPAMSRNGPLPSDVETKYGMALNATSYPDSVVQAMSIDGGIRAATSQEINELTYYTILSANSYCRTVIPGATWDCIHCDATEDLKIIKTWSTLIYDTNAMVARGDSEKTIYIVFRGSSSIRNWIADLTFVPVSYPPVSGTKVHKGFLDSYGEVQNELVATVLDQFKQYPSYKVAVTGHSLGGATALLCALDLYQREEGLSSSNLFLYTQGQPRVGDPAFANYVVSTGIPYRRTVNERDIVPHLPPAAFGFLHAGEEYWITDNSPETVQVCTSDLETSDCSNSIVPFTSVLDHLSYFGINTGLCT [T116I]	61.1	2.4
MVLKQRANYLGFLIVFFTAFLVEAVPIKRQSNSTVDSLPPLIPSRTSAPSSSPSTTDPEAPAMSRNGPLPSDVETKYGMALNATSYPDSVVQAMSIDGGIRAATSQEINELTYYTTLSANSYCRTVIPGATWDCIHCDATEDLKIIKTWSTLIYDTNAMVARGDSEKTIYIVFRGSSSIRNWIADLTFVPVSYPPVSGTKVHKGFLDSYGEVQRELVATVLDQFKQYPSYKVAVTGHSLGGATALLCALDLYQREEGLSSSNLFLYTQGQPRVGDPAFANYVVSTGIPYRRTVNERDIVPHLPPAAFGFLHAGEEYWITDNSPETVQVCTSDLETSDCSNSIVPFTSVLDHLSYFGINTGLCT [N214R]	59.4	-13.6
MVLKQRANYLGFLIVFFTAFLVEAVPIKRQSNSTVDSLPPLIPSRTSAPSSSPSTTDPEAPAMSRNGPLPSDVETKYGMALNATSYPDSVVQAMSIDGGIRAATSQEINELTYYTTLSANSYCRTVIPGATWDCIHCDATEDLKIIKTWSTLIYDTNAMVARGDSEKTIYIVFRGSSSIRNWIADLTFVPVSYPPVSGTKVHKGFLDSYGEVQLELVATVLDQFKQYPSYKVAVTGHSLGGATALLCALDLYQREEGLSSSNLFLYTQGQPRVGDPAFANYVVSTGIPYRRTVNERDIVPHLPPAAFGFLHAGEEYWITDNSPETVQVCTSDLETSDCSNSIVPFTSVLDHLSYFGINTGLCT [N214L]	59.2	-7.5
MVLKQRANYLGFLIVFFTAFLVEAVPIKRQSNSTVDSLPPLIPSRTSAPSSSPSTTDPEAPAMSRNGPLPSDVETKYGMALNATSYPDSVVQAMSIDGGIRAATSQEINELTYYTTLSANSYCRTVIPGATWDCIHCDATEDLKIIKTWSTLIYDTNAMVARGDSEKTIYIVFRGSSSIRNWIADLTFVPVSYPPVSGTKVHKGFLDSYGEVQNELVATVLDQFKQYPSYKVAVTGHSLGGATALLCALDLYQREEGLSSSNLFLYTQGQPRVGDPAFANYVVSTGIPYRRTVNERDIVPHLPPAAFGFLHAGEEYWITLNSPETVQVCTSDLETSDCSNSIVPFTSVLDHLSYFGINTGLCT [D320L]	58.7	-3.3
MVLKQRANYLGFLIVFFTAFLVEAVPIKRQSNSTVDSLPPLIPSRTSAPSSSPSTTDPEAPAMSRNGPLPSDVETKYGMALNATSYPDSVVQAMSIDGGIRAATSQEINELTYYTTLSANSYCRTVIPGATWDCIHCDATEDLKIIKTWSTLIYDTNAMVARGDSEKTIYIVFRGSSSIRNWIADLTFVPVSYPPVSGTKVHKGFLDWYGEVQNELVATVLDQFKQYPSYKVAVTGHSLGGATALLCALDLYQREEGLSSSNLFLYTQGQPRVGDPAFANYVVSTGIPYRRTVNERDIVPHLPPAAFGFLHAGEEYWITDNSPETVQVCTSDLETSDCSNSIVPFTSVLDHLSYFGINTGLCT [S208W]	59.5	3.9
MVLKQRANYLGFLIVFFTAFLVEAVPIKRQSNSTVDSLPPLIPSRTSAPSSSPSTTDPEAPAMSRNGPLPSDVETKYGMALNATSYPDSVVQAMSIDGGIRAATSQEINELTYYTTLSANSYCRTVIPGATWDCIHCDATEDLKIIKTWSTLIYDTNAMVARGDSEKTIYIVFRGSSSIRNWIADLTFVPVSYPPVSGTKVHKGFLDYYGEVQNELVATVLDQFKQYPSYKVAVTGHSLGGATALLCALDLYQREEGLSSSNLFLYTQGQPRVGDPAFANYVVSTGIPYRRTVNERDIVPHLPPAAFGFLHAGEEYWITDNSPETVQVCTSDLETSDCSNSIVPFTSVLDHLSYFGINTGLCT [S208Y]	58.9	-5.5
MVLKQRANYLGFLIVFFTAFLVEAVPIKRQSNSTVDSLPPLIPSRTSAPSSSPSTTDPEAPAMSRNGPLPSDVETKYGMALNATSYPDSVVQAMSIDGGIRAATSQEINELTYYTTLSANSYCRTVIPGATWDCIHCDATEDLKIIKTWSTLIYDTNAMVARGDSEKTIYIVFRGSSSIRNWIADLTFVPVSYPPVSGTKVHKGFLDVYGEVQNELVATVLDQFKQYPSYKVAVTGHSLGGATALLCALDLYQREEGLSSSNLFLYTQGQPRVGDPAFANYVVSTGIPYRRTVNERDIVPHLPPAAFGFLHAGEEYWITDNSPETVQVCTSDLETSDCSNSIVPFTSVLDHLSYFGINTGLCT [S208V]	59.1	-4.9
MVLKQRANYLGFLIVFFTAFLVEAVPIKRQSNSTVDSLPPLIPSRTSAPSSSPSTTDPEAPAMSRNGPLPSDVETKYGMALNATSYPDSVVQAMSIDGGIRAATSQEINELTYYTTLSANSYCRTVIPGATWDCIHCDATEDLKIIKTWSTLIYDTNAMVARGDSEKTIYIVFRGSSSIRNWIADLTFVPVSYPPVSGTKVHKGFLDFYGEVQNELVATVLDQFKQYPSYKVAVTGHSLGGATALLCALDLYQREEGLSSSNLFLYTQGQPRVGDPAFANYVVSTGIPYRRTVNERDIVPHLPPAAFGFLHAGEEYWITDNSPETVQVCTSDLETSDCSNSIVPFTSVLDHLSYFGINTGLCT [S208F]	59.2	-6.4
MVLKQRANYLGFLIVFFTAFLVEAVPIKRQSNSTVDSLPPLIPSRTSAPSSSPSTTDPEAPAMSRNGPLPSDVETKYGMALNATSYPDSVVQAMSIDGGIRAATSQEINELTYYTTLSANSYCRTVIPGATWDCIHCDATEDLKIIKTWSTLIYDTNAMVARGDSEKTIYIVFRGSSSIRNWIADLTFVPVSYPPVSGTKVHKGFLDSYGEVQNELVATVLDQFKQYPSYKVAVTGHSLGGATALLCALDLYQREEGLSSSNLFLYTQGQPRVGDPAFANYVVSTGIPYRRTVNERDIVPHLPPAAFGFLHAGVEYWITDNSPETVQVCTSDLETSDCSNSIVPFTSVLDHLSYFGINTGLCT [E314V]	58.8	-5.3
MVLKQRANYLGFLIVFFTAFLVEAVPIKRQSNSTVDSLPPLIPSRTSAPSSSPSTTDPEAPAMSRNGPLPSDVETKYGMALNATSYPDSVVQAMSIDGGIRAATSQEINELTYYTTLSANSYCRTVIPGATWDCIHCDATEDLKIIKTWSTLIYDTNAMVARGDSEKTIYIVFRGSSSIRNWIADLTFVPVSYPPVSGTKVHKGFLDSYGEVQNELVATVLDQFKQYPSYKVAVTGHSLGGATALLCALDLYQREEGLSSSNLFLYTQGQPRVGDPAFANYVVSTGIPYRRTVNERDIVPHLPPAAFGFLHAGIEYWITDNSPETVQVCTSDLETSDCSNSIVPFTSVLDHLSYFGINTGLCT [E314I]	58.7	-2.7
MVLKQRANYLGFLIVFFTAFLVEAVPIKRQSNSTVDSLPPLIPSRTSAPSSSPSTTDPEAPAMSRNGPLPSDVETKYGMALNATSYPDSVVQAMSIDGGIRAATSQEINELTYYTTLSANSYCRTVIPGATWDCIHCDATEDLKIIKTWSTLIYDTNAMVARGDSEKTIYIVFRGSSSIRNWIADLTFVPVSYPPVSGTKVHKGFLDSYGEVQNELVATVLDQFKQYPSYKVAVTGHSLGGATALLCALDLYQREEGLSSSNLFLYTQGQPRVGDPAFANYVVSTGIPYRRTVNERDIVPHLPPAAFGFLHAGEEYWITDNSPLTVQVCTSDLETSDCSNSIVPFTSVLDHLSYFGINTGLCT [E324L]	64.1	5.4
MVLKQRANYLGFLIVFFTAFLVEAVPIKRQSNSTVDSLPPLIPSRTSAPSSSPSTTDPEAPAMSRNGPLPSDVETKYGMALNATSYPDSVVQAMSIDGGIRAATSQEINELTYYTTLSANSYCRTVIPGATWDCIHCDATEDLKIIKTWSTLIYDTNAMVARGDSEKTIYIVFRGSSSIRNWIADLTFVPVSYPPVSGTKVHKGFLDSYGEVQNELVATVLDQFKQYPSYKVAVTGHSLGGATALLCALDLYQREEGLSSSNLFLYTQGQPRVGDPAFANYVVSTGIPYRRTVNERDIVPHLPPAAFGFLHAGEEYWITDNSPFTVQVCTSDLETSDCSNSIVPFTSVLDHLSYFGINTGLCT [E324F]	60.3	1.6
MVLKQRANYLGFLIVFFTAFLVEAVPIKRQSNSTVDSLPPLIPSRTSAPSSSPSTTDPEAPAMSRNGPLPSDVETKYGMALNATSYPDSVVQAMSIDGGIRAATSQEINELTYYTTLSANSYCRTVIPGATWDCIHCDATEDLKIIKTWSTLIYDTNAMVARGDSEKTIYIVFRGSSSIRNWIADLTFVPVSYPPVSGTKVHKGFLDSYGEVQNELVATVLDQFKQYPSYKVAVTGHSLGGATALLCALDLYQREEGLSSSNLFLYTQGQPRVGDPAFANYVVSTGIPYRRTVNERDIVPHLPPAAFGFLHAGEEYWITDNSPITVQVCTSDLETSDCSNSIVPFTSVLDHLSYFGINTGLCT [E324I]	64.4	5.7
MVLKQRANYLGFLIVFFTAFLVEAVPIKRQSNSTVDSLPPLIPSRTSAPSSSPSTTDPEAPAMSRNGPLPSDVETKYGMALNATSYPDSVVQAMSIDGGIRAATSQEINELTYYTTLSANSYCRTVIPGATWDCIHCDATEDLKIIKTWSTLIYDTNAMVARGDSEKTIYIVFRGSSSIRNWIADLTFVPVSYPPVSGTKVHKGFLDSYGEVQNELVATVLDQFKQYPSYKVAVTGHSLGGATALLCALDLYQREEGLSSSNLFLYTQGQPRVGDPAFANYVVSTGIPYRRTVNERDIVPHLPPAAFGFLHAGEEYWITDLSPETVQVCTSDLETSDCSNSIVPFTSVLDHLSYFGINTGLCT [N321L]	59.3	-13
MVLKQRANYLGFLIVFFTAFLVEAVPIKRQSNSTVDSLPPLIPSRTSAPSSSPSTTDPEAPAMSRNGPLPSDVETKYGMALNATSYPDSVVQAMSIDGGIRAATSQEINELTYYTTLSANSYCRTVIPGATWDCIHCDATEDLKIIKTWSTLIYDTNAMVARGDSEKTIYIVFRGSSSIRNWIADLTFVPVSYPPVSGTKVHKGFLDSYGEVQNELVATVLDQFKQYPSYKVAVTGHSLGGATALLCALDLYQREEGLSSSNLFLYTQGQPRVGDPAFAWYVVSTGIPYRRTVNERDIVPHLPPAAFGFLHAGEEYWITDNSPETVQVCTSDLETSDCSNSIVPFTSVLDHLSYFGINTGLCT [N280W]	55.6	-3.1
MVLKQRANYLGFLIVFFTAFLVEAVPIKRQSNSTVDSLPPLIPSRTSAPSSSPSTTDPEAPAMSRNGPLPSDVETKYGMALNATSYPDSVVQAMSIDGGIRAATSQEINELTYYTTLSANSYCRTVIPGATWDCIHCDATEDLKIIKTWSTLIYDTNAMVARGDSEKTIYIVFRGSSSIRNWIADLTFVPVSYPPVSGTKVHKGFLDSYGEVQNELVATVLDQFKQYPSYKVAVTGHSLGGATALLCALDLYQREEGLSSSNLFLYTQGQPRVGDPAFALYVVSTGIPYRRTVNERDIVPHLPPAAFGFLHAGEEYWITDNSPETVQVCTSDLETSDCSNSIVPFTSVLDHLSYFGINTGLCT [N280L]	59.3	-10
